This note sets out measurements from patent US20250002588A1 (DIAGONAL THERAPEUTICS, published 2025).

In test [1] the target is T1, ALK-1/BMPR-2 receptor pair of the PathHunter U2Os dimerization cells (DiscoverX 93-0962C3) (UniProt P37023 22-503; Q13873 27-1038). Briefly: cell-based or functional assay.
The target in test [2] is T1, ALK-1/BMPR-2 receptor pair of the …. As to the kind of experiment: cell-based or functional assay. The source holds these as a separate data set.

Like-named read-outs stand apart in the source and are kept apart here.

T1 sequence (P37023 22-503, chain 1 of 2): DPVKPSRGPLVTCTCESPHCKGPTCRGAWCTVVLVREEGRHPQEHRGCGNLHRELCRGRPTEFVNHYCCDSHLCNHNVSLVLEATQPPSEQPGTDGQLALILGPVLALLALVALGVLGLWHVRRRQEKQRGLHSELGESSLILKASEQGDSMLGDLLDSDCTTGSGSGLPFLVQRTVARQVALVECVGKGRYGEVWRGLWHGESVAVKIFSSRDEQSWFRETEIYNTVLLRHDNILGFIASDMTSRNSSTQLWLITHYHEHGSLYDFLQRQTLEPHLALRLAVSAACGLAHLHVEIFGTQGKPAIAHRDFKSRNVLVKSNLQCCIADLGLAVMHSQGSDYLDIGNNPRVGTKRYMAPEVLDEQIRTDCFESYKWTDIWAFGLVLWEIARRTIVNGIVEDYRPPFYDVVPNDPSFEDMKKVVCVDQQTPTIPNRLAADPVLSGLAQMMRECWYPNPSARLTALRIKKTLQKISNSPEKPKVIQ
T1 sequence (Q13873 27-1038, chain 2 of 2): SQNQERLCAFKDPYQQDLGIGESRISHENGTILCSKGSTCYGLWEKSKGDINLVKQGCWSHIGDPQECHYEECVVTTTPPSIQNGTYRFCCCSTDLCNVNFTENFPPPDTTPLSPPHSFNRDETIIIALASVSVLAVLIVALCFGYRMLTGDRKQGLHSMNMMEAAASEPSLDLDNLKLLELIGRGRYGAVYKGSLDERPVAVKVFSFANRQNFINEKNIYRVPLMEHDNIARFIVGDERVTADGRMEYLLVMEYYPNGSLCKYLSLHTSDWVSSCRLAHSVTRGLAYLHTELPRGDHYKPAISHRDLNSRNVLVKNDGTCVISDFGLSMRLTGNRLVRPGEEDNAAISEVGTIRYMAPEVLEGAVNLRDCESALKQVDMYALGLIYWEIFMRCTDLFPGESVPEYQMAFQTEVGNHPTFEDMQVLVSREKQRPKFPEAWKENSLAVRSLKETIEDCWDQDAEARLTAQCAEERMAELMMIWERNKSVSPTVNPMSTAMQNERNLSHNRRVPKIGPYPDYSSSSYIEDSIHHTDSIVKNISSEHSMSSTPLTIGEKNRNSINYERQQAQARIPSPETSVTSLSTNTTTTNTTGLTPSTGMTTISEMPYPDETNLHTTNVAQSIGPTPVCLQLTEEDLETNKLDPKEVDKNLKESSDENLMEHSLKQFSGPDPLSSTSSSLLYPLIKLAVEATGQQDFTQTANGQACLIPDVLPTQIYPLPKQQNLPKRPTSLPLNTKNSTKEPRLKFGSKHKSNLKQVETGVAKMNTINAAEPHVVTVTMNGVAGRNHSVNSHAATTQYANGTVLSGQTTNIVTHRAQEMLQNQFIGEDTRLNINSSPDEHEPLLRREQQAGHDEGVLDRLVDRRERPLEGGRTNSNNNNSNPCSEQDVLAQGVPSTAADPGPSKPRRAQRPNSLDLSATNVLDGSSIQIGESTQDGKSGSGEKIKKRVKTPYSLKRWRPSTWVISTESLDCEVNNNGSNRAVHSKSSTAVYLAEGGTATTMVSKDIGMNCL

B1: DGL893 (bispecific antibody)
chain 1: not shown
chain 2: EVQLLESGGGLVQPGGSLRLSCAASGFTFSDYYMTWIRQAPGKGLEWVSSISGGSTYYADSRKGRFTISRDNSENTLYLQMNSLRAEDTAVYYCARDFGVSGWFGQYGMDVWGQGTLVTVSSGGGGSGGGGSGGGGSQSVLTQPPSASGTPGQRVTISCTGSSSNIGAGYDVHWYQQLPGTAPKLLIYRSNQRPSGVPDRFSGSKSGTSASLAISGLRSEDEADYYCSSYAGNYNLVFGGGTKLTVLDKTHTCPPCPAPEAAGAPSVFLFPPKPKDTLMISRTPEVTCVVVDVSHEDPEVKFNWYVDGVEVHNAKTKPREEQYNSTYRVVSVLTVLHQDWLNGKEYKCKVSNKALPAPIEKTISKAKGQPREPQVCTLPPSRDELTKNQVSLSCAVKGFYPSDIAVEWESNGQPENNYKTTPPVLDSDGSFFLVSKLTVDKSRWQQGNVFSCSVMHEALHNHYTQKSLSLSPGWSHPQFEK
For B1, in test [1], the “% Emax BMP9” value was found to be 20% and the “Emax (RLU)” value was determined as 552000 RLU.

B2: DGL894 (bispecific antibody)
chain 1: not shown
chain 2: EVQLLESGGGLVQPGGSLRLSCAASGFTFSDYWMTWIRQAPGKGLEWVSSISGGSTYYADSRKGRFTISRDNSENTLYLQMNSLRAEDTAVYYCARDFGVAGWFGQYGMDVWGQGTLVTVSSGGGGSGGGGSGGGGSQSVLTQPPSASGTPGQRVTISCTGSSSNIGAGYDVHWYQQLPGTAPKLLIYRSNQRPSGVPDRFSGSKSGTSASLAISGLRSEDEADYYCSSYAGNYNLVFGGGTKLTVLDKTHTCPPCPAPEAAGAPSVFLFPPKPKDTLMISRTPEVTCVVVDVSHEDPEVKFNWYVDGVEVHNAKTKPREEQYNSTYRVVSVLTVLHQDWLNGKEYKCKVSNKALPAPIEKTISKAKGQPREPQVCTLPPSRDELTKNQVSLSCAVKGFYPSDIAVEWESNGQPENNYKTTPPVLDSDGSFFLVSKLTVDKSRWQQGNVFSCSVMHEALHNHYTQKSLSLSPGWSHPQFEK
For B2, in test [1], the “% Emax BMP9” value came to 14% and the “Emax (RLU)” value amounted to 383000 RLU.

B3: PRO006 (bispecific antibody)
chain: EVQLLESGGGLVQPGGSLRLSCAASGFTFSDYYMTWIRQAPGKGLEWVSSISGGSTYYADSRKGRFTISRDNSENTLYLQMNSLRAEDTAVYYCARDFGVAGWFGQYGMDVWGQGTLVTVSSGGGGSGGGGSGGGGSQSVLTQPPSASGTPGQRVTISCTGSSSNIGAGYDVHWYQQLPGTAPKLLIYRSNQRPSGVPDRFSGSKSGTSASLAISGLRSEDEADYYCSSYAGNYNLVFGGGTKLTVLDKTHTCPPCPAPEAAGAPSVFLFPPKPKDTLMISRTPEVTCVVVDVSHEDPEVKFNWYVDGVEVHNAKTKPREEQYNSTYRVVSVLTVLHQDWLNGKEYKCKVSNKALPAPIEKTISKAKGQPREPQVYTLPPSRDELTKNQVSLTCLVKGFYPSDIAVEWESNGQPENNYKTTPPVLDSDGSFFLYSKLTVDKSRWQQGNVFSCSVMHEALHNHYTQKSLSLSPGGGGGSGGGGSEVQLLESGGGLVQPGGSLRLSCAASGFTFSSYAMSWVRQAPGKGLEWVANINQDGSEKNYVDSMRGRFTISRDNSKNTLYLQMNSLRAEDTAVYYCAREFDYWGQGTLVTVTSSGGGGSGGGGSGGGGSQSVLAQPPSASGTPGQRVTISCSGSSSNIGSNYVYWYQQLPGTAPKLLIYGNNKRPSGVPDRFSGSKSGTSASLAISGLRSEDEADYYCAAWDDSLNGRVFGGGTKLTVL
In general, EC50 refers to the concentration giving half of the maximal effect. A lower EC50 goes with a more potent agent. On to B3, for which, in test [2], the “% Emax BMP9” value stood at 35%, the response was half-maximal at 100 pM (EC50) and the “Emax (RLU)” value was 929000 RLU.

B4: PRO003 (bispecific antibody)
chain: EVQLLESGGGLVQPGGSLRLSCAASGFTFSIYAMSWVRQAPGKGLEWVSAISGSGGSTYYADSVKGRFTISRDNSKNTLYLQMNSLRAEDTAVYYCARDFDYWGQGTLVTVTSSGGGGSGGGGSGGGGSQSVLTQPPSASGTPGQRVTISCSGSSSNIGSNYVYWYQQLPGTAPKLLIYGNINRPSGVPDRFSGSKSGTSASLAISGLRSEDEADYYCAAWDDSLNGRVFGGGTKLTVLDKTHTCPPCPAPEAAGAPSVFLFPPKPKDTLMISRTPEVTCVVVDVSHEDPEVKFNWYVDGVEVHNAKTKPREEQYNSTYRVVSVLTVLHQDWLNGKEYKCKVSNKALPAPIEKTISKAKGQPREPQVYTLPPSRDELTKNQVSLTCLVKGFYPSDIAVEWESNGQPENNYKTTPPVLDSDGSFFLYSKLTVDKSRWQQGNVFSCSVMHEALHNHYTQKSLSLSPGGGGGSGGGGSEVQLLESGGGLVQPGGSLRLSCAASGFTFSNAWMNWVRQAPGKGLEWVSSISSSSSYIYYADSVKGRFTISRDNSKNTLYLQMNSLRAEDTAVYYCARAVAAGGMFWGLDQWGQGTLVTVTSSGGGGSGGGGSGGGGSQSVLTQPPSASGTPGQRVTISCSGSRSNIGSNSVHWYQQLPGTAPKLLIYGNSNRPSGVPDRFSGSKSGTSASLAISGLRSEDEADYYCQSYDSSLNDHVVFGGGTKLTVL
Regarding B4, in test [2], the “% Emax BMP9” value was determined as 47%, the “EC50” value amounted to 100 pM and the “Emax (RLU)” value turned out to be 1.25e+06 RLU.

B5: PRO004 (bispecific antibody)
chain: EVQLLESGGGLVQPGGSLRLSCAASGFTFSNAWMNWVRQAPGKGLEWVSSISSSSSYIYYADSVKGRFTISRDNSKNTLYLQMNSLRAEDTAVYYCARAVAAGGMFWGLDQWGQGTLVTVTSSGGGGSGGGGSGGGGSQSVLTQPPSASGTPGQRVTISCSGSRSNIGSNSVHWYQQLPGTAPKLLIYGNSNRPSGVPDRFSGSKSGTSASLAISGLRSEDEADYYCQSYDSSLNDHVVFGGGTKLTVLDKTHTCPPCPAPEAAGAPSVFLFPPKPKDTLMISRTPEVTCVVVDVSHEDPEVKFNWYVDGVEVHNAKTKPREEQYNSTYRVVSVLTVLHQDWLNGKEYKCKVSNKALPAPIEKTISKAKGQPREPQVYTLPPSRDELTKNQVSLTCLVKGFYPSDIAVEWESNGQPENNYKTTPPVLDSDGSFFLYSKLTVDKSRWQQGNVFSCSVMHEALHNHYTQKSLSLSPGGGGGSGGGGSEVQLLESGGGLVQPGGSLRLSCAASGFTFSIYAMSWVRQAPGKGLEWVSAISGSGGSTYYADSVKGRFTISRDNSKNTLYLQMNSLRAEDTAVYYCARDFDYWGQGTLVTVTSSGGGGSGGGGSGGGGSQSVLTQPPSASGTPGQRVTISCSGSSSNIGSNYVYWYQQLPGTAPKLLIYGNINRPSGVPDRFSGSKSGTSASLAISGLRSEDEADYYCAAWDDSLNGRVFGGGTKLTVL
On to B5, for which, in test [2], the “% Emax BMP9” value was 46%, it took 500 pM to reach a half-maximal effect (EC50) and the “Emax (RLU)” value was determined as 1.21e+06 RLU.

B6: PRO005 (bispecific antibody)
chain: EVQLLESGGGLVQPGGSLRLSCAASGFTFSSYAMSWVRQAPGKGLEWVANINQDGSEKNYVDSMRGRFTISRDNSKNTLYLQMNSLRAEDTAVYYCAREFDYWGQGTLVTVTSSGGGGSGGGGSGGGGSQSVLAQPPSASGTPGQRVTISCSGSSSNIGSNYVYWYQQLPGTAPKLLIYGNNKRPSGVPDRFSGSKSGTSASLAISGLRSEDEADYYCAAWDDSLNGRVFGGGTKLTVLDKTHTCPPCPAPEAAGAPSVFLFPPKPKDTLMISRTPEVTCVVVDVSHEDPEVKFNWYVDGVEVHNAKTKPREEQYNSTYRVVSVLTVLHQDWLNGKEYKCKVSNKALPAPIEKTISKAKGQPREPQVYTLPPSRDELTKNQVSLTCLVKGFYPSDIAVEWESNGQPENNYKTTPPVLDSDGSFFLYSKLTVDKSRWQQGNVFSCSVMHEALHNHYTQKSLSLSPGGGGGSGGGGSEVQLLESGGGLVQPGGSLRLSCAASGFTFSDYYMTWIRQAPGKGLEWVSSISGGSTYYADSRKGRFTISRDNSENTLYLQMNSLRAEDTAVYYCARDFGVAGWFGQYGMDVWGQGTLVTVSSGGGGSGGGGSGGGGSQSVLTQPPSASGTPGQRVTISCTGSSSNIGAGYDVHWYQQLPGTAPKLLIYRSNQRPSGVPDRFSGSKSGTSASLAISGLRSEDEADYYCSSYAGNYNLVFGGGTKLTVL
For B6, in test [2], the “% Emax BMP9” value was determined as 35%, a half-maximal response (EC50) required 75 pM and the “Emax (RLU)” value turned out to be 931000 RLU.
